Results reported in patent US20250382384A1 (BEONE MEDICINES I, published 2025).

Columns and labels:
[1] = molecular target: T1, full-length human MUC1 on stably transfected cells (human, UniProt P15941 24-1255); assay: FACS (iQue3) on HEK293-hMUC1 cells
T1 construct: also called HEK293/human MUC1; HEK293-hMUC1

[2] = molecular target: T2, native human MUC1 on tumour cell lines (human, UniProt P15941 24-1255); assay: FACS on live ZR-75 cells
T2 construct: whole, on cells; also called native MUC1; ZR-75

[3] = molecular target: T1, full-length human MUC1 on stably …; assay: FACS on HEK293-MUC1 cells, anti-His detection
MUC1-SEA-mIgG2a = molecular target: T3, MUC1-SEA-mIgG2a (human; mouse, UniProt P15941 1036-1155); assay: SPR (Biacore 8K, 25 C), MUC1-SEA-mIgG2a captured by anti-mouse Fc, scFv analyte
T3 construct: also called huMUC1-SEA-mIgG2a; human MUC1-mFc; not shown: Fc domain of mouse IgG2a fused to the C-terminus of the SEA domain
T3 sequence: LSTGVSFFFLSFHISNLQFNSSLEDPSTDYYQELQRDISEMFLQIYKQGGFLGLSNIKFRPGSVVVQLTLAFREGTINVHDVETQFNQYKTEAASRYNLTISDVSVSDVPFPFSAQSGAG

T1 sequence (P15941 24-1255 limits assumed): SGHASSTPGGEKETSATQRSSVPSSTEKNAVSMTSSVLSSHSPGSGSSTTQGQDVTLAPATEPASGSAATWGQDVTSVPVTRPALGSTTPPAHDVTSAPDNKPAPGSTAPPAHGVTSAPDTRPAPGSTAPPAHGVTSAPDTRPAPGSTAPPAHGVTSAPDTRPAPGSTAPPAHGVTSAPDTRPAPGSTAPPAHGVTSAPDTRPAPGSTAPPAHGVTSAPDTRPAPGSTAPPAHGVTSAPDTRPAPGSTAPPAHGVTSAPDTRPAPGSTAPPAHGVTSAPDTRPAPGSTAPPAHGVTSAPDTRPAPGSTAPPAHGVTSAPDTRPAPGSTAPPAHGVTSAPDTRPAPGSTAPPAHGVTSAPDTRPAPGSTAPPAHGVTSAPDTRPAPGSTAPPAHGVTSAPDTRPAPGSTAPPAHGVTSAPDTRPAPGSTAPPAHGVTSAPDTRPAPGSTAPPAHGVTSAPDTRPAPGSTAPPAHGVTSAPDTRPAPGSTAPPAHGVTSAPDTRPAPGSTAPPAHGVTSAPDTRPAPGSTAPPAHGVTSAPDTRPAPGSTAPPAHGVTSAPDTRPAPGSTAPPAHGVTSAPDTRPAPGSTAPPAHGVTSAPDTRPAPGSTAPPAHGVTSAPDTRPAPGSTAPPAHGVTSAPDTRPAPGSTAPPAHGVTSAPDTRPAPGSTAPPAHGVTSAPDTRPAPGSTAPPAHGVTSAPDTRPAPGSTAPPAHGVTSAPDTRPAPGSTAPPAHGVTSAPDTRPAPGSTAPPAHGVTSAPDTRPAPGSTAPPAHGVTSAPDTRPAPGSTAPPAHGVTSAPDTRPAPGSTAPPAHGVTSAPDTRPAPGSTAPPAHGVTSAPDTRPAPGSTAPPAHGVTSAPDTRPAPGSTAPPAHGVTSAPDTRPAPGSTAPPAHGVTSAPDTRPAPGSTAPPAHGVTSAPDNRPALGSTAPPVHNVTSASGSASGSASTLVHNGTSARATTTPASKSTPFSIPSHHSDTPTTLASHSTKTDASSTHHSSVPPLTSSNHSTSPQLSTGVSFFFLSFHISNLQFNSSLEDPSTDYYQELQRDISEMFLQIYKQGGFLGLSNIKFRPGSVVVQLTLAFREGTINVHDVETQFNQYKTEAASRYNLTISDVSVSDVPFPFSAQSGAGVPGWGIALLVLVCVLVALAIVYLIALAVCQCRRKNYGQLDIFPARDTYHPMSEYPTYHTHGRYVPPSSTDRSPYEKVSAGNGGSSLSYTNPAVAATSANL
T2 sequence (P15941 24-1255): as the sequence (P15941 24-1255 limits assumed) above

B1: huBG138P-Hz1 (antibody, V domains shown)
VH: QVQLVQSGAEVKKPGASVKVSCKASGYTFTTYTMHWVRQAPGQRLEWMGYINPGSDYTHYNQKFKDRVTITADTSASTAYMELSSLRSEDTAVYYCARQGNYAAYYFDYWGQGTLVTVSS
VL: DIQMTQSPSSLSASVGDRVTITCRASGNIHNFLVWYQQKPGKVPKLLIYNAKTLTSGVPSRFSGSGSGTDYTLTISSLQPEDVATYYCQNFWNVPFTFGQGTKLEIK
notes: humanized; constant regions not restated (IgG1/Ckappa vector used for the first round)
For B1, the “EC50 (read off the curve)” value [1] was roughly 5 nM.

B2: huBG138P-Hz3 (antibody, V domains shown)
VH: QVQLVQSGAEVKKPGASVKVSCKASGYTFTTYTMHWVRQAPGQGLEWMGYINPGSDYTHYNQKFKDRVTITADKSASTAYMELSSLRSEDTAVYYCARQGNYAAYYFDYWGQGTLVTVSS
VL: DIQMTQSPSSLSASVGDRVTITCRASGNIHNFLVWYQQKPGKVPKLLIYNAKTLTSGVPSRFSGSGSGTDYTLTISSLQPEDVATYYCQNFWNVPFTFGQGTKLEIK
notes: humanized; constant regions not restated
With B2 the “EC50 (read off the curve)” value [1] was roughly 5 nM.

B3: huBG138P-Hz4 (antibody, V domains shown)
VH: QVQLVQSGAEVKKPGASVKVSCKASGYTFTTYTMHWVRQAPGQGLEWMGYINPGSDYTHYNQKFKDRVTITADKSASTAYMELSSLRSEDTAVYYCARQGNYAAYYFDYWGQGTLVTVSS
VL: DIQMTQSPSSLSASVGDRVTITCRASGNIHNFLVWYQQKPGKSPKLLIYNAKTLTSGVPSRFSGSGSGTQYTLTISSLQPEDVATYYCQNFWNVPFTFGQGTKLEIK
notes: as for B2
In the case of B3, the “EC50 (read off the curve)” value [1] is reported as roughly 3 nM.

B4: huBG219P-Bz0 (antibody, IgG1, V domains shown)
VH: EVQLLESGGGLVQPGGSLRLSCAASGFTFNDYIMSWVRQAPGKGLEWVATVSSGGDNTYYPDSVKGRFTISRDNSKNTLYLQMNSLRAEDTAVYYCTRYGGLGAMDYWGQGTLVTVSS
VL: DIQMTQSPSSLSASVGERVTITCRASGNIHNYLTWYQQKPGKSPKLLVYNAKTLADGVPSRFSGSGSGPDYTLTISSLQPEDFATYYCQHFWSVPYTFGQGTKLEIK
notes: human wild-type IgG1 / kappa
B4 was tested, and the EC50 [2] was 20.9 nM.

B5: scFv3-20P (scFv)
scFv: QVQLVQSGAEVKKPGASVKVSCKASGYTFTNYWINWVRQAPGQGLEWMGEIDPSDAYTNNNQKFQGRVTMTVDTSTSTAYMELSSLRSEDTAVYYCARGRRTGFAYWGQGTLVTVSSGGGGSGGGGSGGGGSGGGGSDIQMTQSPSSLSASVGDRVTITCRASENIYSNLAWYQQKPGKAPKLLIYAATNLADGVPSRFSGSGSGTDYTLTISSLQPEDFATYYCQHFWGTPYTFGQGTKLEIKHHHHHH
notes: Humanized BG346P scFv; His tag from the stated format of the BG346P scFv constructs; also called BG346P-scFv3-20P
With B5 the EC50 [3] was 16.1 nM, the Kd (MUC1-SEA-mIgG2a) was 67.1 nM and the koff (MUC1-SEA-mIgG2a) was 0.0202 s⁻¹. For the same binder, the kon (MUC1-SEA-mIgG2a) was 301000 M⁻¹ s⁻¹.
